{
  "source": "the DeepSol protein solubility set",
  "data": [
    {"assay": "soluble on expression in E. coli; label from the status in PepcDB or PDB records", "values": [
      {"sequence": "MKHTFKLSLLCSAILLAGCGDNTSSSGTTDKVTFESEVQALLDRGTSISFTIQGANADVPAPSYLLMDTSDGTLGLPTNGDDALTNPRASMNTMDGWSTSMPIVLNFNGDGFAPGMLASGVKVIKINQRLTEWDGKTNPIAKVLVQNQDYVVQANGKSLYVQFADSLDESSEYIFAVTQDVTDVNGEPIGTSSSYAVAKSKQVKYESGDLASVQAVTEAVEGIFGLAQVNPADIVYSSWFSTQSVGDTLAAVKGVTATGFATGANTLNTIYKNDTNENAVDLATAYTMVLGETQDFMTALDSDSDFNKYVSDLDAAKTAIKGLYVQSGASVNVTQGQVRLPHYLEKGANWNMQPMVSAMPSLAKLNAALTDPAEQANMVQQLSSGVFASSPVDVSKLATDPTEQLKLVGSKLYLNDGTQLDSERVITRYSPVPEVKSLENVEFLLFTPQNGVAKDVVIYQHGITSAKENAYAFAFNMVQTGVAVIAIDLPIHGTRSLDEQRSANANVLAYLNLSNLAVARDNLRQSVLDVLGLRASLVVSAQGGLLAGGPLQGFNPMTGSQVK", "soluble on expression in E. coli": "not soluble"},
      {"sequence": "MILPDRKQILDRELIRRIADTTISGSGHSDGLSEYASIRKAAFAFVESAVLGDQAYSPIENAELAFIVWILAALDENIITARTIIKARDTVEKQLRLVEHYEDLEEFGSRLGIEISVFGEQIGKDHLYRIGVADFATYASRVTGSKYRLSNQIVREGYVYVDEDVMAKVLREAFVSFMFDTLDQIRKEDAIETIKSVLDDLEKIRESYRKAHNVRMIAGKGDASMFPPCMKEIIKNLESGVNVSHMGRLALASFLHKAGYSEDEIVPYFRNAPDFDENITRYQIKHISGEISGTEYTPPKCETMRSNHLCYMDDDPLCHREWMKHPLTYYEVKRRNRKIRLEHHHHHH", "soluble on expression in E. coli": "soluble"},
      {"sequence": "MSLKAIWHGGFIYTMLEEGDRTEAVYVEDGVIKGTGSYERLKEKYGSPETEEISLNGAVMFPGFVDSHLHLIGHGEKQLQLDLSALTSKDSILQAAKERERQLPKNDWLIGEGWNENQFETPDYLTKHDLDRLFPDRPVLLKRICRHAIAVNSAALQAAGISRNTPDPDGGVIVKDANGEPTGLLFDKAQDLILKAVPPVSQHYVDEALTAAIKDCWTKGLTGGHSEDLSYYGDVSVPMKAYEKAAAGGKYPFRCHLLVHHEAVDRWEQLEKLSGPYVEFGAMKIFADGALGGRTALLKEPYQDDPSTNGVQVHDDETLGRLIRKAREKGMEVAVHAIGDLAFEKVLNAIEKHPPKNGRHDRLIHAQVLDNELIERAARMPIALDLQPHFVASDFPWVIDRLGKDRMKTAFAWKTLISKGILCAGGSDAPIEPVDPLLGIQSAVLRKSSHEQNGPSYNESECLPVYEAIKLYTEGSAGIIYKEKSRGKIAEGYDADFTVLSGDPFAIDPAQLHLLEIKKTVINGQIVYEKSEGHHHHHH", "soluble on expression in E. coli": "soluble"},
      {"sequence": "MPSPTVTSPQVAVNDIGSSEDFLAAIDKTIKYFNDGDIVEGTIVKVDRDEVLLDIGYKTEGVIPARELSIKHDVDPNEVVSVGDEVEALVLTKEDKEGRLILSKKRAQYERAWGTIEALKEKDEAVKGTVIEVVKGGLILDIGLRGFLPASLVEMRRVRDLQPYIGKEIEAKIIELDKNRNNVVLSRRAWLEQTQSEVRSEFLNNLQKGTIRKGVVSSIVNFGAFVDLGGVDGLVHVSELSWKHIDHPSEVVQVGDEVTVEVLDVDMDRERVSLSLKATQEDPWRHFARTHAIGQIVPGKVTKLVPFGAFVRVEEGIEGLVHISELAERHVEVPDQVVAVGDDAMVKVIDIDLERRRISLSLKQANEDYTEEFDPAKYGMADSYDEQGNYIFPEGFDAETNEWLEGFEKQRAEWEARYAEAERRHKMHTAQMEKFAAAETAGRGADDQSSASSAPSEKTAGGSLASDAQLAALREKLAGSALEHHHHHH", "soluble on expression in E. coli": "not soluble"},
      {"sequence": "MSLTKRWFNVGKIVNTHGIKGEVRVISKTDFAEERYKPGNTLYLFMDGRNEPVEVTVNTHRLHKQFHLLQFKEGQNLNEVEELKNAIIKVPEEELGELNEGEFYFHEIIGCEVFTEEGELIGKVKEILTPGANDVWVIGRKGKKDALIPYIESVVKHIDVREKKIEIELMEGLIDEEGGSHHHHHH", "soluble on expression in E. coli": "soluble"},
      {"sequence": "MAERPRTIGNALEYVPEAIKTEAICLAALEIQRYGTVLKYIPDALKTEAMCLAAVQKYGYALEYVPEALKTEAICLAAGYEELQYWPEALKTEAVCLAAVEKNSKLLEFVPEALKTEAVCLAAGYKELQYWPEALKTEAPYLAAVQKDGSMLATVPEALKTEAFCLAAVQKNVRAFEYVPEALKTEAVCLAAVEKNGKLLEFVPEALRTEAICLAALQKDSSLLQYIPEALKTEAFCLTAVQKDSSLLQYVPEAFKTEVICLAAVQKDSSLLQYIPEALKTEAFYLAAVRKDGYSLKYIPEALKTEAICLAAVQKNGYLLKYVPEALKTEAICLSAVKQEGSALAYVPEALKTEALCLAAVQKNSSLLQYVPDTFKTEAFEAKMRSVISSGSGSSGYGIELIKWKFLSKEQKEWLEKIPYYYDSSKALEIPAELFTEEFCLAVVLKNSDGSVLQYIPDAKKTEAVCLAAVHERYKNALRYIPDALKT", "soluble on expression in E. coli": "not soluble"},
      {"sequence": "MKCPRCGREYISSIPPFCICGEELEITYDYSSVDVRKWKRRNPGVWRYKELLPEVKKIITLQEGGTPLIKARISEKINVDVYIKDETRNPTGSFRDRLATVAISYGLPYASNGFIVASDGNAAASVAAYSARAEKECFVVVPRKVDKGKLIQMIAFGARIIRYGDSVDEAIEYARELSKLNGLYNVTPEDNIIGLEGQKTIAFELWEEINPTHVIVPTGSGSYIYSIYKGFKELIKIGVLEKMPRLIAVQTERCNPIAAEILGLKKECKETKALGLYVKNPVMKSRVIRAIKESGGTAVVVNENDIITGEKLLANEGIFAELSSAVVMPALLSLVEKGIIEKGDKVVLVVTGSGLKIGEGGREKFSIGGTKLEILKILEEREMYAYEIWQALGKPLKYQAVHQHIKELQELGLIKEAYRKGKRIYYKLTERGRRLIENLE", "soluble on expression in E. coli": "soluble"},
      {"sequence": "MAHHHHHHMHDIYLDNPSTFEILEKMFSLYVNTYPDNELPIGFILMGDFISLKFDYNKNFNDLYIKGFEKLSVLLISKFKLILQNCYLIFIPGKNDPCACKNSIPKMPILPYYIKKFEQNIQSFFSCKKKIIFATNPCRIRHFNKKMIFFRQDILNDLIWSSSINATDDNKNNLQDILISTIVGQSHIYPIPHDNRILKRYSSFLFLYPLPNFICISDNTCNSFISYASDNTSDSIISNSDLSFTKKKTFTVYNVLQHDAKRYVVPI", "soluble on expression in E. coli": "not soluble"},
      {"sequence": "MAHHHHHHMSATPSNVLLGLFDGYMSHKRDQLTSETKLGGTPTYFPPLSDADKAQIRRWTSCGVCGHAMSLLTQAYSPLPTAPASRPHHRMVYVFGCNSGYCSRQPTSSMVAFSVQVDQEDEQALAENAEEEDEDEVIETGPLLPSELPEAVLPPCYVYIDAEPSKEAVVPTDIERELIKMAEENARSTVTDEELQQLEQTVDLKDTKTDYYYEKFRSRVARAPNQVLRYYERTVAAAAATSASLRAKDVKPIFMNPDKVKAMVTIPACACCGSTQTAELQVMPTSLYYLHVSEYTALARADAAAMAAPAGTLAAASTHSNVVDTQSPVASPSASTTTCKASALSGAATGTEKAIPANVDDGCDFGTITVYVCAKDCAARQHGVVLRRETLCVEEAPTMRDEERAGKADAAKAGTDGATHKVTLRELLHGNGEGGEDMEDDDEGHIDDEAVSTA", "soluble on expression in E. coli": "soluble"},
      {"sequence": "MNLYIASIKLWFKGFKENTERSITYSFEPNKINVITGDSSTGKSSILDIIDYLLLSDNPTIVENIINENVEFYGMNIFLEERSYILMRKAPHSGQGTQDVYWKEQEEYPMPYIQTHSVGEMRTILTRMFYVPQHETKVGNRKYNMTFRHFLPFNYLTEDIISSANTYFDTAFFINRSYDVFLDYALELVNGIQYHNANEIKAKIEKAEIDLKQYQKKHQIAQENATKYKASLTSIYDDALSLNLIPADNFFVRENAHEMLHYIKEALAAYNKLIKNDEDTKKLELLKKERYELNNKLSIYNSLLAEMQKQKSSGKKIQDSLRPITFIKEHIDEVIISPETIELLHLLEKQLVQIKESRKEKPKLPHDFALRHEELKDKLKACESKLKELTILRKTIANPKWLERAIGLKYRLENLKRPKEDTYQASTEQNMISLIESLKIEQKNMSLLPHDVKEKLNSYINKYFHSINGIVDSYPDSTMRYDDDERRISLLNNGEDYPVRNIGSKSNYMFLHLCFFLGLHESIMFHRSKHVGSFLFIDQPSMPYYADKGTLDNDDKKQLIKAFRLLNEFMEEIIGNQNRSFQMILIEHADESYWKELEYFHTTATFSKIAQGGLIPKYIYE", "soluble on expression in E. coli": "not soluble"},
      {"sequence": "MSLTPPLAPKTVAALHRLGIRTLEELRQNGSVKAFLLLKASGLTLTKSTLWQLESLLDGTPPQEMSQAHKARLLAELKNHPPVAAFPPQEEMEHFMCEALRQAEQSSADGEIPVGAVIVSDGKIIASAHNTCIADCNVSRHAEINALAQAGREIQNYRLDGCDIYITLEPCAMCASALIQARIRRVIYGAAEPKTGAAGSIVNLFADKRLNTHTAIRGGILQEECRAVLSRFFQNKREGHHHHHH", "soluble on expression in E. coli": "soluble"},
      {"sequence": "MIRFAVIGTNWITRQFVEAAHESGKYKLTAVYSRSLEQAQHFANDFSVEHLFTSLEAMAESDAIDAVYIASPNSLHFSQTQLFLSHKINVICEKPLASNLAEVDAAIACARENQVVLFEAFKTACLPNFHLLRQALPKVGKLRKVFFNYCQYSSRYQRYLDGENPNTFNPAFSNGSIMDIGFYCLASAVALFGEPKSVQATASLLASGVDAQGVVVMDYGDFSVTLQHSKVSDSVLASEIQGEAGSLVIEKLSECQKVCFVPRGSQMQDLTQPQHINTMLYEAELFATLVDEHLVDHPGLAVSRITAKLLTEIRRQTGVIFPADSVKL", "soluble on expression in E. coli": "soluble"},
      {"sequence": "MTTKEKVKALWQLCFDDNEEFVEMYFRLRYKNEINIAIESGDEIVSALQMIPYPMTFCGDTVQTSYISGACTHPDFRGNGVMRELLSQAFAKMLRNGTYFSTLIPAEPWLFDYYTRMGYASVFQYSVKEITVPEFIPSKEITVTSEIGCQKEVYEYLNSKLSGRTCCIQHSFEDFQVVMADLILSDGILVTARSENQINGLAIVYRRDKQLIISELFAETKDAEHSLLHHIKQFTGCRHMTQLLPPEKEQTQYPLGMARIINAKEVLQLYASAFPEDEMQLEVSDKQLSVNNGYYYLCNGKCMYSTERLPGAHIPMNISELTGRIFQALRPYMSLMLNK", "soluble on expression in E. coli": "not soluble"},
      {"sequence": "MSLDSKIDILIVVNMFLTGFDSKVLNTLYVDKNLMYHDLIQAYSRTNRVEKESKPFGKIVNYRDLKKETDDALRVFSQTNDTDTILMRSYEEYKKEFMDAYRELKMIVPTPHMVDDIQDEEELKRFVEAYRLLAKIILRLKAFDEFEFTIDEIGMDEQENEDYKSKYLAVYDQVKRATAEKNKVSILNDIDFEIEMMRNDTINVNYIMNILRQIDLEDKAEQREGHHHHHH", "soluble on expression in E. coli": "soluble"},
      {"sequence": "MVLFVDFLLEWLEMMRTRVRETTYASYNSGIRQSIIPYFMDKKLTLTDIEENPKYLQDFYQHELSKGLSPNSVLRRHANIRKALQHAFHLGLIKSNPADRIERPKKQLEHHHHHH", "soluble on expression in E. coli": "not soluble"},
      {"sequence": "MTERLKVMTIFGTRPEAIKMAPLVLELQKHPEKIESIVTVTAQHRQMLDQVLSIFGITPDFDLNIMKDRQTLIDITTRGLEGLDKVMKEAKPDIVLVHGDTTTTFIASLAAFYNQIPVGHVEAGLRTWDKYSPYPEEMNRQLTGVMADLHFSPTAKSATNLQKENKDESRIFITGNTAIDALKTTVKETYSHPVLEKLGNNRLVLMTAHRRENLGEPMRNMFRAIKRLVDKHEDVQVVYPVHMNPVVRETANDILGDYGRIHLIEPLDVIDFHNVAARSYLMLTDSGGVQEEAPSLGVPVLVLRDTTERPEGIEAGTLKLAGTDEETIFSLADELLSDKEAHDKMSKASNPYGDGRASERIVEAILKHFNK", "soluble on expression in E. coli": "not soluble"}
    ]}
  ]
}
